T1: recombinant human IL-18 (human, UniProt Q14116 37-193)
T1 construct: Commercial recombinant human IL-18; In the Luminex screening it was attached to beads; also called Interleukin-18; human interleukin-18
T1 sequence (looked up): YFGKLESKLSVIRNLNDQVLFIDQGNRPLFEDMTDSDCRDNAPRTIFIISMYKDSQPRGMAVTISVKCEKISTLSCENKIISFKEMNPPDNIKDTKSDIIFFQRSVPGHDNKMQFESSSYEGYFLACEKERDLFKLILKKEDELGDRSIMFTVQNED

T2: IL-18/IL-18BP complex (human, UniProt Q14116 37-193)
T2 construct: Complex of IL-18 with IL-18BP; in the third Luminex screening step IL-18BP was linked to the beads and then complexed to IL-18; Stoichiometry 1:1 is only cited from the literature; also called IL-18 previously complexed to IL-18BP; complex IL-18/IL-18BP
T2 sequence 1: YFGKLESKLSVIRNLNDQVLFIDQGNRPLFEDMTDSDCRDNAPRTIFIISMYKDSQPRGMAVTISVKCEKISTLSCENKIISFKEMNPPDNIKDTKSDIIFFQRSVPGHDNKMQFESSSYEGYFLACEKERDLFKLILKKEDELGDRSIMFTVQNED
T2 sequence 2: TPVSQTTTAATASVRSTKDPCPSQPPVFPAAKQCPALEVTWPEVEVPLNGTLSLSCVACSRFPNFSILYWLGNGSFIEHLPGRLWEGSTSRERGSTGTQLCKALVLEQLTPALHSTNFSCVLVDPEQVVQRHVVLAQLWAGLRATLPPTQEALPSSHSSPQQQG


What was measured:
recombinant human IL-18 [1] = target: T1, recombinant human IL-18; experiment: Luminex; mAb on IL-18 beads
IL-18/IL-18BP complex [2] = target: T2, IL-18/IL-18BP complex; experiment: Luminex third screening against first screening
IL-18/IL-18BP complex [3] = target: T2, IL-18/IL-18BP complex; experiment: Luminex; mAb on IL-18 complexed to bead-linked IL-18BP
recombinant human IL-18 [4] = target: T1, recombinant human IL-18; experiment: Luminex; biotinylated IL-18BP (competitor) on IL-18 beads pre-bound with the mAb; the signal is IL-18BP binding

Row | Binder | Fluorescence intensity (recombinant human IL-18 [1]) | fold inhibition of binding to IL-18 complexed to IL-18BP against binding to IL-18 alone (IL-18/IL-18BP complex [2]) | Fluorescence intensity (IL-18/IL-18BP complex [3]) | Fluorescence intensity (IL-18BP binding on IL-18 previously complexed to monoclonal antibody) (recombinant human IL-18 [4])
1 | Antibody 131E8 (antibody) chain 1: QVQLKQSRPGPVQPSQSLSITCTVSGFSLPNYGVHWVRQPPGKGLEWLGVIWSGGSTDYNAAFKSRLSISKDNSKSQVFFKMNSLQADDTAIYYCARNFYSKYDYAMDYWGQGTSVTVSS chain 2: QVQLQQPGSVLVRPGASVKLSCKASGYTFTSYWMHWVKQRPGQGLEWIGNINPNSGSTNYNEKFKGKATLTVDTSSSTAYMDLSSLTSEDSAVYYCARLGDYWGQGTTLTVSS chain 3: ENVLTQSPAIMSASPGEKVTMTCSASSSVSYMHWYQQKSSTSPKLWIYDTSKLASGVPGRFSGSGSGNSYSLTISSMEAEDVATYYCFQGSGYPLTFGSGTKLEIK | 25400 fluorescence intensity | > 500 fold | 36 fluorescence intensity | 1390 fluorescence intensity
2 | Antibody 111A6 (antibody, V domains shown) VH: EVQLQQSGAELVKPGASVKLSCTASGFKIKDTYIHWVIQRPAQGLEWIGRIDPANGNTIYGSKFQGKATLTADTSSNTAYIHLSSLTSGDSAVYYCAGYVWFAYWGQGTLVTVSA VL: DVVMTQVPLSLPVSLGDQASISCRSSQRLVHSNGNTYLHWFLQKPGQSPKLLIYTVSNRFSGVPDRFSGSGSGTDFTLKISRVEAEDLGVYFCSQSTLVPWTFGGGTKLEIK | 25900 fluorescence intensity |  | 42 fluorescence intensity | 1400 fluorescence intensity

Source: patent publication US20160215048A1 (published 2016)
